Measurements: the Immune Epitope Database (IEDB)

What follows are sequences tested against HLA-A*02:01 (assay: IEDB peptide-MHC binding, purified MHC/competitive/radioactivity; ≥ and ≤ were set here for values at or beyond the usual limits of such assays). Conditions: source organism: Homo sapiens.

IC50 [nM]	Sequence
26	ALVGLFVLL
943	FVTWHRYHL
385	LIGNESFAL
676	QVMSLHNLV
161	TLDSQVMSL
357	TLLVVMGTLV
29	TLVALVGLFV
417	VLHSFTDAI
161	VTWHRYHLL

Each sequence was assayed against HLA-A*02:01 (assay: IEDB peptide-MHC binding, purified MHC/competitive/radioactivity; filed as Kd, often an IC50 or EC50 that approximates it; ≥ and ≤ were set here for values at or beyond the usual limits of such assays). Conditions: source organism: Homo sapiens.

Kd [µM]	Sequence
≥ 10	AANDPIFVV
≥ 10	AARPDDPTL
≥ 10	ALDLAKKRV
1.35	ALPYWNFAT
≥ 10	ATGRNECDV
≥ 10	CLERDLQRL
≥ 10	GAQGQFPRV
4.54	GTLVALVGL
≥ 10	ITTQHWLGL
≥ 10	LAFLQYRRL
1.52	LLAFLQYRRL
3.57	LLSCLGCKI
≥ 10	LLSCLGCKIL
1.35	LLVVMGTLV
≥ 10	NCERKKPPV
≥ 10	NCSVYDFFV
≥ 10	QGRGQCTEV
2.63	QLGYSYAIDL
≥ 10	QMGRNSMKL
4.54	SAANDPIFV
≥ 10	STFSFRNAL
2.63	TLLVVMGTL
≥ 10	TTQHWLGLL
7.14	VALVGLFVL
7.14	VCMTVDSLV
≥ 10	WLGLLGPNG
8.33	WMKRFNPPA
≥ 10	YTPLMETHL
